Results taken from the DeepSol protein solubility set.

Experiment: soluble on expression in E. coli; label from the status in PepcDB or PDB records

Sequence | soluble on expression in E. coli
MSLAFYIATFDIGTTEVKAALADRDGGLHFQRSIALETYGDGNGPVEQDAGDWYDAVQRIASSWWQSGVDARRVSAIVLSGQMQNFLPLDQDHEPLHRAVLYSDKRPLKEAEEINARHGADNLWSALENPMTAASILPKLVFWRASFPQAFGRLRHVVLGAKDYVVLRLTGRHATDRTNASTTGLYRPKDDAWHVELLADYGFSLDLMPRLLEPGEQVGGVSALAARQTGFVSGTPVLCGLGDAGAATLGVGVLDDEDAYLHLGTTGWLARLTQTDPVGDMPVGTIFRLAGIIAGKTLQVAPVLNAGNILQWALTLVGHRPGEDCAEYFHMAAAEVQGVTVPDGLLFVPYLHAERCPVELPAPRGALLGVTGATTRAQILLAVLEGAALSLRWCAELLGMEKVGLLKVVGGGARSEAWLRMIADNLNVSLLVKPDAHLHPLRGLAALAAVELEWSHSIQDFLREADLREPASNILHPQPCDEGRRRRKFERFKQCVETLGRLDEGHHHHHH | soluble
MGSDKIHHHHHHMDAAAAPERIDLAGLVADLNALLRLKTTVIGMKLFRTVAEMEAVPKIRRPNAIHTTDQIVSMASRLGWTVGITAADLVGEQCRAVIGLAPQDAAWLAGRSYVGVWHATPEDASARQQALDVVPFGHHQAMAVSPLASGRLDPPDICLVYATPGQMIILINGLQYAGYKKFEWSVVGETACADSWGRALKTGEPSLSLPCFAERRYGGVPDEEMLMALSPAHLAKAIDGMKQLAKNGLRYPIAPYGIQADVRAGMGVSYGNK | not soluble
MGSDKIHHHHHHMIIMTYYTFVKPFFIKAVTHLHVSSGTSVEEEVDLPFQRDELNYPTIFASSLKGAIKSFLLKEYSNAREIIYKVLGSDENPDEASLGSFLDAVLFAIPARSIGVSGLDEAWVYVTTYELLRKVKSLLESMNTLSATQFTSLLDAINNILQESKNLIISDNAASVILNEDFYVELSNIQNEYIQSLLGDMLIENSTYNQSNQNSQSQGNHLVKPLIVLKDSIGREVINRSLIRVRRIKIKRSSKTVEEGGLWSEEYVPVNSLFFSSFLARGSKDTAYFADCILRKTRYLILGGKETIGKGIVELRWLND | not soluble
MEIGQRVRINFEVATVRYIGEVDGYGSQRWVGLEWDDPTRGKHDGIVRGKRYFQTRHPNGGSLMKHEIVPKPTDLLFEIKDRYIEEESVETEIELAQSNKKIELIGMDQTAAKQSNIEKLINIVLDNRSVGFPPSSDSPQFILCRELNLYGNLLYKWKTVRQILEYFPRIQELNLRRNRMQCFNEEEDDDESEGDDHVYSDSCKKLVISECNLSENSIDSILLRFPSTSDVVAFGNDLTRFSVSEAVSSRLTSLDLEDNPFKTLDSIHGTFPNLTQLSVANCGITSLNGFDGSIKFPKLEYLNIKRNSIVEWKSVNSIRSLKSLKRLLFDCKKLSTEKGVHAYEIVIAKLSTLIDLNRFDVSEVERRSAEIRFLNKYAGLNDNEDHQDDIKRLIEIHGEPTLDTAKKGLAVVKIRIECGNRVETRRLPLGMSIQKIRDMLARLFKVPNTSKIRLYLVMSEKAKQHRIELENPLREFGHYSPSEDRDILVVEHD | not soluble
NATTLPEALKLMQYIGDAIGTIRDPQELFRTVTDKLRLLFAFDSAVIITIDRERREASVFFEMLRFELPEQLRHQTRSIAGTWLEGHLDDRTVTVASIARDIPSFGADGAPLLWTLHELGMRQIVLSPLRSGGRVIGFLSFVSAEEKLWSDGDKSLLSGVSSSIAIAVSNALAYEELRQREAETSMQLAINNALFTI | soluble
MGHHHHHHSHMTWKGGGGWMAAVTQGPGITWGSLLPSAVRQGEQKCKNTDVSIFLNWGVEGCLLTASKELTVEGPQCIPPLPESLSPLGPPGSQSSEETDPSCFNSCCCFSLWAGPGRGRAEQAPGGLQSQLDLAVSPAGSPADTGEVG | not soluble
AQCEATIESNDAMQYDLKEMVVDKSCKQFTVHLKHVGKMAKSAMGHNWVLTKEADKEGVATDGMNAGLAQDYVKAGDTRVIAHTKVIGGGESDSVTFDVSKLTPGEAYAYFCSFPGHWAMHKGTLKLSN | soluble
MRMRHKPWADDFLAENADIAISNPADYKGKWNTVFGNDNPIHIEVGTGKGQFISGMAKQNPDINYIGIELFKSVIVTAVQKVKDSEAQNVKLLNIDADTLTDVFEPGEVKRVYLNFSDPWPKKRHEKRRLTYSHFLKKYEEVMGKGGSIHFKTDNRGLFEYSLKSFSEYGLLLTYVSLDLHNSNLEGNIMTEYEEKFSALGQPIYRAEVEWRTLEHHHHHH | not soluble
MAGSNSRKPVVGMKIRVALVSALLAVSGCTTLSGKAPTLAPTPASTPPTSGKVTKSIISAMDGGLIGGSIGNGLSDEEKRSALEAEYKALEYTTSGQKVAWKGDQASHYGEVVPAQPYRVGSQDCRQYTQTVFTGGAGVTARGTACRNADGSWTPLTLEHHHHHH | soluble
AARRKIAKDLGKQVTQAMQTLSMQGGRFEAALTGGAPSAHGSEQVEFLVAGHAGSTPRPLAKVASGGELSRISLALSVIASRAARVPTLIFDEVDSGVGGAVAEAVGKLLRELGQRHQVLCVTHLPQVAACAHAQYRVSKVESGGSTRSRIAELDAEARVEEVARMLGGIKITATTRDHAREMLGGHTAPAA | not soluble
DHPFTSAPTFGDFGSNQQAMPLYRVEPVYPSRALKRGVEGFVTLSFTIDTTGKAVDINVVDANPKRMFEREAMQALKKWKYQPQIVDGKAIEQPGQTVTVEFKIAK | soluble
GPGSMPERCIGITTVQVGHIVGRGGSTLKGIQERTGATLCIVENGLQVKITADDAAKVAAAEAEVHKIVASQQNPDYEGPCGARLRKEAVELGQKRSKLFEEATRMREAGDHEGANKLVAMAKKAGEDMKARHREAALAIAKHNNEEKGKGPNYFDMHGLHLEEAMEMLKVRMSKLEEKPVGSTTAFEVIPGAGHHSAPGTQKLKRATLEYVQWKGYPCEEVNAGAFLVKVPGLGEGVLSKPEDGDKVPTKPKESATGVANKPKASGSAAASKSKAQSCCACM | soluble
MLLAYSMKVVYHLFSGGKDSSLAAWILKKLGYEVKLITITFGVLDNWKFARETAEILGFDHEVIEMPIGILEKATEMCIKEGRAGNAIQYIHERALEYIASREEVKRISDGTRRDDRVPFLDLSKARSLEDRYNVAYIRPLLGLGYKTIRELVNEIFVVVEDESEKVQKGDYETELRELIRRKGHDPSQIFPKRHVQSRVVGLR | not soluble
MAEVRARVDFKVGAKSNIDAEILSFRGLKTDKEHVAVIFKQADQTQDTPLVRMHSECLTGDVFHSSRCDCGEQLEETIQRMGESGGVILYLRQEGRGIGLYNKIDAYRLQSQGMNTYEANNHLGFDDDLRDFTEAAQMLEALGIKKIRLVTNNPKKIRELAEYGIEIVEVVNTSAHIKDGNENYLRAKVSHGKHNLKVLEHHHHHH | soluble
MVHDTFMKMPEVRRRRQPTHVLVAGGNQGLGNMTAFLRAARTSTLFRYSVLCGANKQLYHEIASWQLPHIRPLPYINSPEEMNQLYDEADAVITKPGGVTISELLHKRIPIFTIDCLPGQERINWQYLRRNGLIYHLAEPGNGERKMIRLLTDDVEKNRFFRRVSDYFAGVEKTGLEHHHHHH | not soluble
MSLTNSSKSFTKFMAASAVFTMGFLSVPTAGAEQTNQIANKPQAIQWHTNLTNERFTTIAHRGASGYAPEHTFQAYDKSHNELKASYIEIDLQRTKDGHLVAMHDETVNRTTNGHGKVEDYTLDELKQLDAGSWFNKKYPKYARASYKNAKVPTLDEILERYGPNANYYIETKSPDVYPGMEEQLLASLKKHHLLNNNKLKNGHVMIQSFSDESLKKIHRQNKHVPLVKLVDKGELQQFNDQRLKEIRSYAIGLGPDYTDLTEQNTHHLKDLGFIVHPYTVNEKADMLRLNKYGVDGVFTNFADKYKEVIKEGHHHHHH | soluble
MSVHPAVQSLCEQPIDTIGLTAVSAVASALGDVSTATDLIQRPEQEKALHDLLKKCMSILNNSGKNSALRLACLECLYVLSQPPIPAFRTGLLCNTLNSVNSSVEEMLARTGPSEAESSSSAREMFTVLVFRFTNYDTKVARLLLQHMCDGDVGTMMQTLLRVMVQHCETCEWPLLQAALQSLYELTVPTTYYATGKDGAAEPSFDSAATATGSSLQSFTVESFQDRIAVLLTEMRNHRLLEKLLASLRLSWHESTHNRSPPSLAQGCAESVALGALGCPDVAHTVTSASAEQQMELLNWLSAFTLLCRALDNMVEFCRDAKLAREVRARLLSDPSCHDWLASAAVPAVIAAIQVWMSDDGASATPAAISDGSAGPFATAKVKLSLLTAAVTLLRLLRFALYKPAMGFTAALLSSMGCLAAQVQRGEPHLRLQYGGMQVMLLTVECLVNMNAVAVTSPVNLSESYRGLLRTIAADKTRCTLSNCSSDVSSDHGAVAERQPDALMPVAEWFILCVREEESPFCDIDSGNASVALLHECFASEEARLQDAADRVADLAALESQLAMMQNFLLLMTLTELLSGLPDGGLERLTQPGPRRRNSATDAEQKPPNNSDSSSRRCKLSKKKVSHHPAAYVCDLTGKLMREPVVLKGGHRFEFDALQNVILQVGHVDPISGESIDEDVEVNIPLQQEIAAYRVKRASEKGGS | not soluble
MSTRYPTLTRSGFVLPERMKASYEGAADGRRSATWDAPDTGVNSLIMPALRNLRSRSRAAVRNDPYAANAIDRRVSNLIGTGITPQPRIADKELRRIFQETWEDWVDESDADQLTDFYGQQALIARTVEQSGECFVRLRPRRMDDGLAVPLQLQCLAPEFVPHDKFEVTSTGNIIRAGIEFNGFGKRVAYWCYRSHPSDMTSINAGYNMLVRIPASQMLHIFEPVEPGQLRGVPRLAPVLKRLRSLDNFDDAVLFRQEVANLFAGFIRKPSADGPPMLDPLTGAPIKIGGDGFTPMVALEPGTMQELLPGEEVEFSTPPDGGNNYPDFMRQQLMAAAAGAGLPYELMTGDMRGVNDRTIRVVLNEFRRRLEQLQFSVYVHQLCRPVRAAWMDMAVLSGALQLDDYAARRREYLRTRWVPQGWSYIHPVQDVQSRTMEINAGLASRSEMCLRTGTDAEIVDEENAADAARARGLGLNYSTLSAFDEDPDEKENP | not soluble
SDVVEVVGSWWAQEREDIIMKYEKGHRAGLPEDKGPKPFGSYNNNIDHFGMQHETELPPLTAREVKQIRREISRKSKWVKMLGEWDTYKNSRKLIDRAYQGIPMNIRGPMWSVLLNIEEIKLKNPGRYQIMKEKGKRSSEHIQQMDLDVSGTLRRHIFFRDRYGTKQRELLYILLAYEEYNPEVGYCRDLSHIAALFLLYLPEEDAFWALVQLLASERHSLQGFHSPNGGTVQGLQDQQEHVVATSLPKTMWHQDKKDLCGQCSSLGCLIRILIDGISLGLTLRLWDVYLVEGEQAFMLITKSPLRFSRSASRRRPGVARGHVFGTGSLMPGPGMMTLCSSILGPL | soluble
MILVFLGPPGAGKGTQAKRLAKEKGFVHISTGDILREAVQKGTPLGKKAKEYMERGELVPDDLIIALIEEVFPKHGNVIFDGFPRTVKQAEALDEMLEKKGLKVDHVLLFEVPDEVVIERLSGRRINPETGEVYHVKYNPPPPGVKVIQREDDKPEVIKKRLEVYREQTAPLIEYYKKKGILRIIDASKPVEEVYRQVLEVIGDGN | soluble
